B1: Swi5-Sfr1 complex (wild type, full-length Sfr1) (complex, S. pombe)
chain 1: MEKSQLESRVHLLEQQKEQLESSLQDALAKLKNRDAKQTVQKHIDLLHTYNEIRDIALGMIGKVAEHEKCTSVELFDRFGVNGSE
chain 2: MSQTINSELNENATSQCKEDLKVSLSESDLRDSQGQLGIENPPKCNNSGNHSDNLGFIEQSETVHPENEKALTPDLRDTKIHTSLPITTPFSKKRAREAKNILLKPFKSPLRQTASPQVADTNLKPSLAVTNLNSDETNTSSEPVTSPLRTTPNSIKRQKRLFKSPISNCLNPKSDPEITQLLSRRLKLEKEVRNLQEQLITAETARKVEAKNEDKDLQTLIQKWKNAAQQAAEVLFKPMAERIRLAGGVTQSFRIEEGENKGQIQEVRTEFTMSMFLNQFGVPVHLMSFDEENGDWKS
B2: Rad51 (S. pombe), purified (natural protein, UniProt P36601 1-365, looked up)
chain: MADTEVEMQVSAADTNNNENGQAQSNYEYDVNVQDEEDEAAAGPMPLQMLEGNGITASDIKKIHEAGYYTVESIAYTPKRQLLLIKGISEAKADKLLGEASKLVPMGFTTATEYHIRRSELITITTGSKQLDTLLQGGVETGSITELFGEFRTGKSQICHTLAVTCQLPIDMGGGEGKCLYIDTEGTFRPVRLLAVADRYGLNGEEVLDNVAYARAYNADHQLELLQQAANMMSESRFSLLVVDSCTALYRTDFSGRGELSARQMHLARFMRTLQRLADEFGIAVVITNQVVAQVDGISFNPDPKKPIGGNILAHSSTTRLSLRKGRGEQRICKIYDSPCLPESEAIFAINSDGVGDPKEIIAPV

Legend:
[1] = biological target: B2; assay: cell-based or functional assay
[2] = biological target: the molecule itself; assay: SEC
[3] = biological target: B1; assay: pull-down

Row | Rad51-dependent ATP turnover, Swi5-Sfr1:Rad51 ratio of 1:20 [1] [fold] | binding result [3] | Binder | binding result [2]
1 | 1.85 | – | B1 | –
2 | – | binds | B2 | binds

From article PMC7093153 (eLife, 2020)
